Experimental data reported in US20040106557A1 (LICENTIA, published 2004).

T1: GST-C-4 (peptide C-4 expressed as glutathione S-transferase fusion protein)
T1 chain: CVAYCIEHHCWTC

B1: GST-B-2 (peptide B-2 expressed as glutathione S-transferase fusion protein) (other)
chain: CVFAHNYDYLVC
B2: Prostate specific antigen (PSA), purified from human seminal fluid (enzyme)
chain: not shown
notes: mature; Mostly captured on wells by MAb 5E4 (IFMA) or on the chip by MAb H117 (SPR); in solution in enzyme assays; also called free PSA; active PSA
B3: GST-A-1 (peptide A-1 expressed as glutathione S-transferase fusion protein) (other)
chain: CVFTSDYAFC

Tests used:
[1] = target: B2; test: cell-based or functional assay
[2] = target: B2; test: SPR, PSA captured by MAb H117, 10 µM Zn2+, single fit, 3.4 µM peptide
[3] = target: B2; test: SPR, GST-peptide injected over PSA captured by MAb H117; average of 3 concentrations
[4] = target: B2; test: SPR, PSA captured by MAb H117, 0 µM Zn2+, average of 3 fits (3.4-8.5 µM analyte)
[5] = target: B2; test: SPR, PSA captured by MAb H117, 30 µM Zn2+
[6] = target: B2; test: SPR, PSA captured by MAb H117, 30 µM Zn2+, single fit, 3.4 µM peptide
[7] = target: B2; test: cell-based or functional assay; remark: listed apart in the source
[8] = target: B2; test: SPR, PSA captured by MAb H117, 1 µM Zn2+, single fit, 3.4 µM peptide
[9] = target: B2; test: SPR, PSA captured by MAb H117, 10 µM Zn2+
[10] = target: B2; test: GST-peptide IFMA, PSA captured by MAb 5E4, Eu-labelled anti GST tracer
[11] = target: B1; test: competition IFMA: GST-peptide (167 nM) preincubated with PSA in solution, then binding to PSA captured by MAb 5E4
Description: (§1) Various amounts of GST-peptide or wild type GST were added to wells containing captured PSA in 200 μL of assay buffer and incubated for 1 h. To test the effect of Zn²⁺ on the binding between GST-peptide and PSA, various concentrations of Zn²⁺ (1-200 μM) were added to the buffer in the incubation step of GST-peptide and PSA. […] After incubation for 1 h the wells were washed and Eu³⁺-labeled anti GST antibody was added. After further incubation and washing the bound fluorescence was measured as described above. When assessing the binding of the GST-peptides to other proteinases, including chymotrypsin, cathepsin G, trypsin, and kallikrein, these proteinases were captured by their specific antibodies coated to the microtitration well. Recombinant hK2 was captured by MAb 5E4, which is known to bind hK2 (24). For assessing the binding of the GST-peptides with complexes of PSA, including PSA-ACT and PSA-α1-protease inhibitor (PSA-API) (28), the complexes were captured by antibodies against ACT and API, respectively. After capturing the various proteinases or PSA complexes, GST-peptide was added and binding was monitored as described above for the GST-peptide IFMA.
(§2) In this connection, we refer also to FIG. 3. GST-C-4 was preincubated with increasing concentrations of PSA in solution for 1 h. Then the samples of the mixtures were added to wells in which PSA had been captured by anti PSA MAb. The binding was measured by IFMA. Data represent mean values from duplicate wells ±SE. The corresponding values for the peptides A-1 (SEQ ID NO 1) and B-2 (SEQ ID NO 6) were 3.3 nM and 1 nM, respectively (data not shown). Preincubation of the GST-peptides with an excess of free PSA inhibited binding to the solid phase PSA. The binding of peptide C-4 (SEQ ID NO 11) to captured PSA was reduced by 50% at a PSA concentration of 0.7 nM.

[12] = target: T1, GST-C-4 (peptide C-4 expressed as …); test: as above
Description: as §1, §2

[13] = target: B3; test: as above
Description: as §1, §2

[14] = target: B2; test: SPR, PSA captured by MAb H117, 1 µM Zn2+

Binder | 50% stimulation [1] | Kd [2] | koff [2] | kon [2] | Kd [3] | koff [3] | kon [3] | Kd [4] | koff [4] | kon [4] | increase (fold) of affinity against 0 µM Zn2+ [5] | Kd [6] | koff [6] | kon [6] | minimum peptide concentration affecting the activity [7] | Kd [8] | koff [8] | increase (fold) of affinity against 0 µM Zn2+ [9] | Maximal binding (CPS) [10] | also measured
B1 | 1.7 µM | 600 nM | 0.0016 s⁻¹ | 2650 M⁻¹ s⁻¹ | 3500 nM | 0.057 s⁻¹ | 16300 M⁻¹ s⁻¹ | 3500 nM | 0.057 s⁻¹ | 16300 M⁻¹ s⁻¹ | 4.7 fold | 800 nM | 0.0006 s⁻¹ | 830 M⁻¹ s⁻¹ | 300 nM | 3100 nM | 0.0035 s⁻¹ | 6 fold | 428000 CPS | 
B2 |  |  |  |  |  |  |  |  |  |  |  |  |  |  |  |  |  |  |  | IC50 [11]: 1 nM; IC50 [12]: 0.7 nM; IC50 [13]: 3.3 nM
B3 | 2.2 µM | 1400 nM | 0.0016 s⁻¹ | 1200 M⁻¹ s⁻¹ | 7800 nM | 0.08 s⁻¹ | 10300 M⁻¹ s⁻¹ | 7800 nM | 0.08 s⁻¹ | 10300 M⁻¹ s⁻¹ | 7.7 fold | 1000 nM | 0.002 s⁻¹ | 1900 M⁻¹ s⁻¹ | 300 nM | 2600 nM | 0.0047 s⁻¹ | 5.9 fold | 219000 CPS | increase (fold) of affinity against 0 µM Zn2+ [14]: 3 fold; kon [8]: 1800 M⁻¹ s⁻¹
